± gives the uncertainty stated by the source.
Assay: self-splicing fitness, log relative to wild type (ln ratio); higher = more splicing; Tetrahymena group I intron in knt gene, E. coli kanamycin selection, DiMSum; sequences stand for … in CUCUCU…GGAGGGAAAAGUUAUCAGGCAUGCACCUGGUAGCUAGUCUUUAAACCAAUAGAUUGCAUCGGUUUAAAAGGCAAGACCGUCAAAUUGCGGGAAAGGGGUCAACAGCCGUUCAGUACCAAGUCUCAGGGGAAACUUUGAGAUGGCCUUGCAAAGGGUAUGGUAAUAAGCUGACGGACAUGGUCCUAACCACGCAGCCAAGUCCUAAGUCAACAGAUCUUCUGUUGAUAUGGAUGCAGUUCACAGACUAAAUGUCGGUCGGGGAAGAUGUAUUCUUCUCAUAAGAUAUAGUCGGACCUCUCCUUAAUGGGAGCUAGCGGAUGAAGUGAUGCAACACUGGAGCCGCUGGGAACUAAUUUGUAUGCGAAAGUAUAUUGAUUAGUUUUGGAGUACUCGUGGUCG
How it was run: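 Fitness was computed with DiMSum as the error-weighted combination of replicate fold changes, kanamycin versus none, each normalised to wild type. The library randomised all eight intron nucleotides of the P1ex region, with the intron placed in the knt kanamycin-resistance gene on pET-22b(+) in E. coli BL21(DE3). Six replicate transformations were grown overnight at 37°C or 30°C on LB agar with or without 25 μg/mL kanamycin, plus 100 μg/mL carbenicillin, 50 μM IPTG and 0.2% rhamnose. Pooled colonies were amplicon-sequenced on an Illumina HiSeq 2500.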

Sequence	self-splicing fitness (ln) (30 °C)	self-splicing fitness (ln) (37 °C)
CGGUAGCAAUAUUACGACGU	-1.76 ± 0.13	-1.08 ± 0.17
CGGUAGCAAUAUUACGAGCA	-3.2 ± 0.31	-0.781 ± 0.17
CGGUAGCAAUAUUACGAGCU	-2.4 ± 0.15	-1.89 ± 0.2
CGGUAGCAAUAUUACGAGGC		-0.808 ± 0.29
CGGUAGCAAUAUUACGAGUG	-0.671 ± 0.098	0.142 ± 0.17
CGGUAGCAAUAUUACGAUCG	-2.68 ± 0.22	-2.27 ± 0.32
CGGUAGCAAUAUUACGAUUG	-0.538 ± 0.073	-0.0537 ± 0.095
CGGUAGCAAUAUUACGCAAC		-1.42 ± 0.35
CGGUAGCAAUAUUACGCACU	-1.64 ± 0.26	0.00723 ± 0.27
CGGUAGCAAUAUUACGCAUG	-0.808 ± 0.069	0.339 ± 0.08
CGGUAGCAAUAUUACGCUGA	-2.23 ± 0.21	-0.951 ± 0.2
CGGUAGCAAUAUUACGGACU	-1.25 ± 0.16	-0.871 ± 0.2
CGGUAGCAAUAUUACGGCAG	-0.164 ± 0.13	0.767 ± 0.16
CGGUAGCAAUAUUACGGCGU	-2.03 ± 0.14	-0.594 ± 0.13
CGGUAGCAAUAUUACGGGGG	-3.21 ± 0.22	-3.01 ± 0.43
CGGUAGCAAUAUUACGGGUA	-2.65 ± 0.21	-3.01 ± 0.28
CGGUAGCAAUAUUACGGUAU	-3.77 ± 0.22	-2.31 ± 0.22
CGGUAGCAAUAUUACGGUUG	-0.837 ± 0.069	-0.0229 ± 0.093
CGGUAGCAAUAUUACGUAAG	0.00223 ± 0.095	0.329 ± 0.11
CGGUAGCAAUAUUACGUACC	-3.27 ± 0.4	-1.89 ± 0.3

Sequence	self-splicing fitness (ln) (30 °C)	self-splicing fitness (ln) (37 °C)
CGGUAGCAAUAUUACGUAGA	-1.73 ± 0.053	-1.89 ± 0.082
CGGUAGCAAUAUUACGUAGC	-3.25 ± 0.2	-3.13 ± 0.27
CGGUAGCAAUAUUACGUAGU	-2.59 ± 0.13	-1.34 ± 0.16
CGGUAGCAAUAUUACGUCGU	-3.85 ± 0.22	-2.02 ± 0.24
CGGUAGCAAUAUUACGUGCU	-3.24 ± 0.28	-2.51 ± 0.29
CGUAAGCAAUAUUACGACAU	-3.255 ± 0.022	-1.8 ± 0.035
CGUAAGCAAUAUUACGAGGU	-3.63 ± 0.46	-1.71 ± 0.29
CGUAAGCAAUAUUACGAUGG	-1.37 ± 0.097	-0.574 ± 0.13
CGUAAGCAAUAUUACGAUGU		-1.57 ± 0.16
CGUAAGCAAUAUUACGAUUC	-3 ± 0.13	-2.52 ± 0.16
CGUAAGCAAUAUUACGCAGC		-2.3 ± 0.39
CGUAAGCAAUAUUACGCCAA	-3.24 ± 0.33	-1.91 ± 0.4
CGUAAGCAAUAUUACGCUCA	-1.2 ± 0.2	-0.106 ± 0.18
CGUAAGCAAUAUUACGCUGC		-2.3 ± 0.39
CGUAAGCAAUAUUACGGACG	-2.45 ± 0.12	-1.89 ± 0.14
CGUAAGCAAUAUUACGGAUC	-3.4 ± 0.23	-3.44 ± 0.37
CGUAAGCAAUAUUACGGCCA	-2.86 ± 0.42	-1.74 ± 0.21
CGUAAGCAAUAUUACGGGAU	-3.63 ± 0.18	-3.29 ± 0.35
CGUAAGCAAUAUUACGGGUC	-4.24 ± 0.28	-2.45 ± 0.2
